Laboratory results taken from the supplement of paper PMC10126150.
± gives the standard deviation of the averaged measurements.

Tested on: ATP
Assay: switch fluorescence ratio, 500 uM ATP over buffer (Cy3 cluster intensity, sum of 5 cycles each) (fold (ratio)); higher = stronger signal-on switching upon ATP binding; sequences stand for … in TCGTCGGCAGCGTCAGATGTGTATAAGAGACAGTTTTTTTTTTTTTTTTTTTTTTTTT…TC
Settings: aptamer strand: ATP DNA aptamer (quencher-CACCTGGGGGAGTATTGCGGAGGAAGG + anchor), 100 nM annealed; ATP concentration: 500 uM
Method in brief: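 Cy3-labelled switching-strand clusters on a modified Illumina MiSeq flow-cell were annealed to 100 nM quencher-labelled ATP aptamer and imaged first in selection buffer, then after 15 min with 500 uM ATP at 22 °C. NaOH stripping and re-annealing separated each of five buffer/ATP cycles, and clusters outside 100-1000 RFU were excluded. The fluorescence ratio sums target-cycle Cy3 intensity over buffer-cycle Cy3 intensity per cluster and averages it per switch-domain sequence.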
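Further: ATP exposure 15 min at 22 °C before imaging.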

In order of rising switch fluorescence ratio:
1. TTGGACTGGG  0.948 ± 0.082
2. AGGTAGGCCA  0.951 ± 0.026
3. AGTAGAAGAT  0.9552 ± 0.0071
4. TATTCGTGGG  0.956 ± 0.048
5. TCGGTTAGT  0.96 ± 0.054
6. AGAACTGGTT  0.961 ± 0.034
7. ATGTTTTTCT  0.963 ± 0.0029
8. TGTGAGGGTT  0.964 ± 0.012
9. GTGTGGAGGT  0.964 ± 0.016
10. CCAAGGGATG  0.967 ± 0.018
11. GTGGTTTTTG  0.968 ± 0.025
12. TGGCGTTTTG  0.9687 ± 0.0069
13. TTTGGGCCGT  0.971 ± 0.043
14. GTGGCTCTGC  0.973 ± 0.077
15. CAGAGTTTAG  0.973 ± 0.032
16. ATTTAGTACA  0.973 ± 0.011
17. GGATTGTAGG  0.9738 ± 0.0053
18. TGGTTTGGGG  0.974 ± 0.021
19. GTTGTGTGTG  0.974 ± 0.041
20. CGGTAGTGCG  0.975 ± 0.021
21. TTTCGGGAGT  0.976 ± 0.016
22. ATCGTTCGGC  0.976 ± 0.037
23. AATTGGGTTA  0.976 ± 0.023
24. AGTTGGAGTT  0.978 ± 0.043
25. GCGTGAGTTG  0.9783 ± 0.0085
26. TTTTATCGGT  0.979 ± 0.012
27. GCAATTGCTG  0.9802 ± 0.0023
28. ATTATTATTG  0.981 ± 0.041
29. GCGTCAGCGG  0.981 ± 0.02
30. GGTGTAGCTA  0.981 ± 0.061
31. CGGGGCTTTG  0.982 ± 0.025
32. GTTATTGAAG  0.982 ± 0.022
33. TTTGATCAGC  0.983 ± 0.031
34. ATGGTCGGCC  0.9831 ± 0.0052
35. AGGGTCAATG  0.983 ± 0.013
36. CTTGACAGAG  0.9835 ± 0.0074
37. TATTTTGGAA  0.986 ± 0.044
38. TGGCCACTT  0.986 ± 0.023
39. AGGGTAGTGC  0.9869 ± 0.0091
40. CGTGGGAGGT  0.987 ± 0.036
41. TATTAGTGAT  0.9869 ± 0.0055
42. TAGATTGGAG  0.987 ± 0.0072
43. TGTTATTGGG  0.987 ± 0.042
44. AGGAGACTTA  0.9877 ± 0.0047
45. AGGGATAAGC  0.988 ± 0.021
46. AAATTATTTC  0.989 ± 0.033
47. TCGGGAGGGG  0.989 ± 0.033
48. GTTGGTGAGT  0.989 ± 0.015
49. TTTATATTAG  0.9889 ± 0.0075
50. TCTGGGGGGG  0.99 ± 0.052
51. AGCCTGGGCT  0.99 ± 0.014
52. CGTTGATTTG  0.9908 ± 0.0057
53. TAAAGTGTGG  0.992 ± 0.027
54. TTTTACTTGG  0.993 ± 0.015
55. GATAGATCAG  0.993 ± 0.018
56. CGTGTTACGG  0.994 ± 0.046
57. AGGTCGCGGT  0.994 ± 0.025
58. ATGGTTGGTA  0.995 ± 0.038
59. TTTTCAACTA  0.9949 ± 0.0024
60. GGGGAAGAAA  0.995 ± 0.027
61. GGGTATTGTT  0.995 ± 0.024
62. CTTTTCTTAA  0.996 ± 0.0011
63. GGTGGCGGAA  0.996 ± 0.037
64. CTTGAGTGTT  0.996 ± 0.011
65. TTTTATGTAA  0.996 ± 0.032
66. AGGATAGGAG  0.9957 ± 0.0014
67. ATTTGGGGTT  0.997 ± 0.031
68. ATTATTCAGT  0.997 ± 0.018
69. ACTAGGAAAA  0.997 ± 0.011
70. TTTAAAGTGT  0.997 ± 0.029
71. ATGTATTAGG  0.997 ± 0.025
72. TTTTTATATA  0.997 ± 0.016
73. TTTGCAGCGC  0.998 ± 0.021
74. TTGTTTTAAT  0.999 ± 0.02
75. AAGAATTTTG  0.999 ± 0.027
76. AGGGATTTTT  0.999 ± 0.011
77. GGCACGTGGG  0.999 ± 0.017
78. CAATGGGTAG  0.9989 ± 0.0018
79. CGGGTTGCCC  1 ± 0.012
80. GGTTGATATG  1 ± 0.041
81. TCTGATGGGG  1 ± 0.044
82. TTTTAAGGAT  1 ± 0.024
83. GGTGGGGAGC  1 ± 0.021
84. GAACTGGGGG  1 ± 0.019
85. TTGCTAATCA  1 ± 0.04
86. GATATAATGG  0.9999 ± 0.0019
87. AAGCTCTTGA  1 ± 0.04
88. AGTTTAGAAT  1.001 ± 0.0052
89. TTTGCAAACA  1 ± 0.061
90. TTGGTTATGG  1 ± 0.039
91. AAACGGAGTG  1 ± 0.023
92. CTAGGGGGTT  1 ± 0.034
93. TCGAGAGATA  1 ± 0.054
94. CCACTATTCT  1.001 ± 0.0062
95. AGTCATTATG  1 ± 0.036
96. TTAGACGGGG  1 ± 0.034
97. TATCGGACTG  1.01 ± 0.13
98. CTGGACGCTG  1.01 ± 0.017
99. TTTCTGGGTT  1.01 ± 0.023
100. TAGGTGCCTT  1.006 ± 0.0053
101. GACTAGTGAC  1.01 ± 0.021
102. GATGGGAAAA  1.01 ± 0.021
103. GCGTCGTCGG  1.01 ± 0.036
104. GATAGTTTAC  1.01 ± 0.044
105. AAGGCTTAGT  1.01 ± 0.052
106. GCTTTTCAGC  1.01 ± 0.038
107. CCTATGGTAG  1.014 ± 0.0099
108. TGGACCATTT  1.01 ± 0.0021
109. CATTATACAT  1.01 ± 0.023
110. GCCTTGATGT  1.01 ± 0.032
111. GTTGTTTAAT  1.006 ± 0.0081
112. TTCAGCCATT  1.01 ± 0.041
113. GGGGTACTGG  1.01 ± 0.016
114. CAGGGCCTGT  1.01 ± 0.028
115. GTTTGGAGGC  1.01 ± 0.016
116. ACGCGCGGAA  1.008 ± 0.003
117. TACGTGTTTG  1.01 ± 0.033
118. CAGGGAGTAG  1.01 ± 0.021
119. CCGGTGTGCC  1.01 ± 0.052
120. ATTGATGTTT  1.01 ± 0.024
121. ATGGGAGTTT  1.01 ± 0.01
122. TTTCGGTCAT  1.02 ± 0.029
123. CGTAGGAAGA  1.02 ± 0.048
124. GGCAACTGGG  1.02 ± 0.05
125. GAGGGGCAGG  1.02 ± 0.074
126. TGGATTATAG  1.02 ± 0.033
127. TATATCAGGT  1.018 ± 0.0066
128. ATGCACCTCG  1.025 ± 0.006
129. AGGGTCAACG  1.018 ± 0.0099
130. GATCTGAAGT  1.02 ± 0.012
131. GGCGTAAATG  1.02 ± 0.0066
132. TAGGGTGGG  1.024 ± 0.0028
133. GTTTTGTTGA  1.02 ± 0.021
134. AAAGGGAGGA  1.02 ± 0.036
135. TTGTTGTAGC  1.02 ± 0.015
136. CCATATTCTC  1.016 ± 0.0072
137. ACGGCTAGCG  1.02 ± 0.022
138. TGCGCATAGA  1.02 ± 0.018
139. TAGATAATGG  1.02 ± 0.014
140. CATATATCGG  1.02 ± 0.012
141. ACTGAGTTTA  1.02 ± 0.019
142. AAGTCAGCGA  1.02 ± 0.014
143. GTTGTCCATA  1.015 ± 0.0029
144. GGCGGATTGG  1.02 ± 0.015
145. TAAGGTCCGA  1.021 ± 0.0077
146. GAGGGTATAG  1.02 ± 0.085
147. AATGTGGGCC  1.024 ± 0.0013
148. TGTAAGGAAA  1.03 ± 0.013
149. AGGCTACATA  1.03 ± 0.019
150. GTGTAAGGG  1.03 ± 0.031
151. TGGTTGGGTG  1.03 ± 0.059
152. CGGGAGGTGT  1.029 ± 0.0037
153. TAGGGCCCGG  1.03 ± 0.077
154. TAGAGGGCGG  1.03 ± 0.012
155. AGCTAAAGGC  1.03 ± 0.032
156. GTCGCGTAGG  1.03 ± 0.024
157. TTGGAATTCT  1.04 ± 0.081
158. TCATTTACAT  1.04 ± 0.037
159. GGTGCATGGC  1.04 ± 0.04
160. AAACTTAATC  1.04 ± 0.05
161. CGGGAATTTC  1.04 ± 0.027
162. AGGATTTAAG  1.05 ± 0.022
163. TCTGAGTTTT  1.05 ± 0.06
164. TACTTGAGTT  1.05 ± 0.012
165. CAACTTGGGA  1.05 ± 0.015
166. ACTCGAGGTT  1.05 ± 0.013
167. TATTTGTAGG  1.05 ± 0.045
168. CAGTCCGGCA  1.05 ± 0.021
169. TAGGTGGGAT  1.05 ± 0.038
170. AAGATCACTG  1.06 ± 0.068
171. TGAAGTTCGG  1.06 ± 0.025
172. ATAACGTTCG  1.06 ± 0.052
173. GAATTCACGG  1.06 ± 0.038
174. CGGGGGCACC  1.07 ± 0.057
175. GCTGGAGGAA  1.07 ± 0.018
176. GCACGCTAGG  1.07 ± 0.041
177. AAATAAAGCT  1.07 ± 0.073
178. GTTTAAGGTT  1.08 ± 0.2
179. TTAGAGACTG  1.08 ± 0.11
180. TTGATGGTAC  1.0774 ± 0.00051
181. CGCTATTATA  1.09 ± 0.052
182. TAAATGCGCC  1.09 ± 0.022
183. CACGTTTCCT  1.1 ± 0.067
184. AGGATAAGCT  1.1 ± 0.17
185. CGCCGATATA  1.12 ± 0.063
186. CGGTCTATGC  1.12 ± 0.035
187. ATTTTACGTA  1.143 ± 0.0025
188. CTCTCGAAGC  1.1577 ± 0.0001
189. GACTAGGTCG  1.16 ± 0.22
190. TCCTACTGTA  1.1974 ± 0.00047
191. ACAACTCAGG  1.22 ± 0.022
192. TCTCTGAATC  1.24 ± 0.079
193. ACTAGGGACA  1.24 ± 0.028
194. AAGTACTCCA  1.335 ± 0.0082
195. TCAATGCGCC  1.46 ± 0.4
196. GCAGTACTTT  1.5 ± 0.12
197. GGAATAATTT  1.51 ± 0.73
198. ACCGGTGTAC  1.77 ± 0.12
199. AATACCTTTC  2.3 ± 0.14
200. CGAGGGGAAC  2.81 ± 2.5
